In this assay the target is SARS-CoV-2 receptor-binding domain (RBD) (SARS-CoV-2, UniProt P0DTC2). As to the kind of experiment: SPR.

B1: 7D6 monoclonal antibody (antibody, V domains shown)
VH: EVQLQQSGAELVRPGASVKLSCTASGFNIKDTYIHWVKQRPEQGLEWIGRIDPGDGDTEYDPSFQGKATITADTSSNTAYLELSSLTSEDTAVYYCTRFYDYVDYGMDYWGQGTSVTVSS
VL: DIQMTQSPASLSASVGETVTITCRASGNIHNYLAWYQQKQGKSPQLLVYNAKTLADGVPSRFSGSGSGTQYSLKINSLQPEDFGSYYCQHFWSTPPWTFGGGTKLEVK
For orientation: Kd means the constant that tells how readily two partners part at equilibrium. As for B1, the Kd came to 3 pM.
